Test results: US20100240033A1 (INSTITUT NATIONAL DE LA SANTE ET DE LA RECHERCHE MEDICAL …, published 2010)

How the values were obtained:
[1] = molecular target: T1, human prolactin receptor mutant I76V (human, UniProt P16471 25-622); experiment: cell-based or functional assay
T1 sequence: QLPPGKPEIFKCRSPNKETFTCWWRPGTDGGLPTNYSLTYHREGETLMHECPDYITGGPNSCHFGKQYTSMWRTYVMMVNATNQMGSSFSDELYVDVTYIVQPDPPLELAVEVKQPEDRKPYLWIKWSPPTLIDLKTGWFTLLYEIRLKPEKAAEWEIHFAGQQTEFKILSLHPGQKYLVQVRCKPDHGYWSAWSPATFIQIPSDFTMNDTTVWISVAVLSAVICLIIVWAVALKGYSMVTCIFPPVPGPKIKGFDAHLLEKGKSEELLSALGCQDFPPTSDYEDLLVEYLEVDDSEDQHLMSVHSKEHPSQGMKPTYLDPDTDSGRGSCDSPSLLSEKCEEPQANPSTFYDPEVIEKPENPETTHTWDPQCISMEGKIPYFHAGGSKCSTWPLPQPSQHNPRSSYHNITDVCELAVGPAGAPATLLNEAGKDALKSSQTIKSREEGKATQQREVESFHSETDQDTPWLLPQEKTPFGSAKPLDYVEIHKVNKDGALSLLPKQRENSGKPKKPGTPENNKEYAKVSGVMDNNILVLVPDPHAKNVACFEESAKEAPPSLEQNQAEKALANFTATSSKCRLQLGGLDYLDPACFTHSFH

[2] = molecular target: T2, wild-type human prolactin receptor (PRLR), isoform 1 (human, UniProt P16471 25-622); experiment: cell-based or functional assay
T2 sequence: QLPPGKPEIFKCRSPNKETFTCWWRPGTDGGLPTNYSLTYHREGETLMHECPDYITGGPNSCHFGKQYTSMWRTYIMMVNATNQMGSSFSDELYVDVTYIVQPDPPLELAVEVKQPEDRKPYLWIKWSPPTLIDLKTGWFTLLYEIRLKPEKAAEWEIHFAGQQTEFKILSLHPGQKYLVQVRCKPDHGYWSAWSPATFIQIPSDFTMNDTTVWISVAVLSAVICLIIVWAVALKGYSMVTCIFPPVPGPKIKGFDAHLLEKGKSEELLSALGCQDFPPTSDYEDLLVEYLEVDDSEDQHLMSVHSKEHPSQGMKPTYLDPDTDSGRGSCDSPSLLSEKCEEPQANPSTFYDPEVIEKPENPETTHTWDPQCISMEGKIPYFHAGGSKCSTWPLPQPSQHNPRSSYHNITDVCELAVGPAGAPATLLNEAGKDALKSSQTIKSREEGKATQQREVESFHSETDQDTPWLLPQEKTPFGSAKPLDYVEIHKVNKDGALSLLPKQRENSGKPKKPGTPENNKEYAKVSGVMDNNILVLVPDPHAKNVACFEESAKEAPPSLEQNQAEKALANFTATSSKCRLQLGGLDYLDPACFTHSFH

[3] = molecular target: T1, human prolactin receptor mutant I76V; experiment: radioligand competition ([125I]-hPRL vs unlabeled hPRL) on homogenates of stably transfected HEK 293 cells, Scatchard analysis
Experimental: (§1) Binding affinities of mutated PRLR for hPRL were determined using cell homogenates of stably transfected HEK 293, following a procedure previously described (KINET et al., J Biol Chem, 274, 26033-26043, 1999). Briefly, recombinant hPRL, produced in bacteria E. coli using the pT7L expression vector, and purified as described previously (PARIS et al., Biotechnol Appl Biochem, 12, 436-449, 1990), was iodinated using the Iodogen method, and its specific activity was in the range of 4-5 μCi/μg. Binding assays were performed overnight at room temperature using 150-300 μg cell homogenate protein in the presence of 20,000-30,000 cpm [¹²⁵I]-hPRL and increasing concentrations of unlabeled hPRL (competitor). Scatchard analysis was performed to determine the binding affinity of mutated PRLR and the number of PRLR per cell in stable clones or populations.

[4] = molecular target: T2, wild-type human prolactin receptor …; experiment: as above
Experimental: as §1

fold induction of LHRE-luciferase activity by PRL (transient transfection, HEK 293) [1]: 5 fold
fold stimulation of LHRE-luciferase activity induced by PRL (stable HEK 293 clones, 1 ug/ml PRL) [2]: 8 fold
Kd [3]: 0.44 nM
Kd [4]: 0.64 nM
B1: recombinant human prolactin (hPRL) (ligand, UniProt P01236 29-227, looked up)
chain: LPICPGGAARCQVTLRDLFDRAVVLSHYIHNLSSEMFSEFDKRYTHGRGFITKAINSCHTSSLATPEDKEQAQQMNQKDFLSLIVSILRSWNEPLYHLVTEVRGMQEAPEAILSKAVEIEEQTKRLLEGMELIVSQVHPETKENEIYPVWSGLPSLQMADEESRLSAYYNLLHCLRRDSHKIDNYLKLLKCRIIHNNNC
modifications: tracer form iodinated (125I, Iodogen method); unlabeled hPRL used as competitor
notes: Recombinant hPRL from bacteria; also called WT hPRL; [125I]-hPRL
